B1: human IL-12p35 subunit, wild type (ligand, UniProt P29459 23-219, looked up)
chain: RNLPVATPDPGMFPCLHHSQNLLRAVSNMLQKARQTLEFYPCTSEEIDHEDITKDKTSTVEACLPLELTKNESCLNSRETSFITNGSCLASRKTSFMMALCLSSIYEDLKMYQVEFKTMNAKLLMDPKRQIFLDQNMLAVIDELMQALNFNSETVPQKSSLEEPDFYKTKIKLCILLHAFRIRAVTIDRVMSYLNAS
notes: also called hp35
B2: human IL-12p40 mutant hp40-N222Q (ligand)
chain: IWELKKDVYVVELDWYPDAPGEMVVLTCDTPEEDGITWTLDQSSEVLGSGKTLTIQVKEFGDAGQYTCHKGGEVLSHSLLLLHKKEDGIWSTDILKDQKEPKNKTFLRCEAKNYSGRFTCWWLTTISTDLTFSVKSSRGSSDPQGVTCGAATLSAERVRGDNKEYEYSVECQEDSACPAAEESLPIEVMVDAVHKLKYEQYTSSFFIRDIIKPDPPKNLQLKPLKNSRQVEVSWEYPDTWSTPHSYFSLTFCVQVQGKSKREKKDRVFTDKTSATVICRKNASISVRAQDRYYSSSWSEWASVPCS
notes: NO; 4 already carries N222Q; also called Gln-222

Each molecule was assayed against B2 (assay: co-transfection of hp40-N222Q plasmid with varied amounts of hp35 DNA, IL-12p70 ELISA).

binding result	Molecule
binds	B1

Each molecule was assayed against human IL-12p40 subunit, wild type (human) (UniProt P29460) (assay: IL-12p70 ELISA of lysates of co-transfected COS-7 cells).

IL-12p70 heterodimer in cell lysates (% of wild type)	Molecule
72%	human IL-12p35 mutant hp35-N127Q (from UniProt P29459 23-219) (ligand)
88%	human IL-12p35 mutant hp35-N251Q (from UniProt P29459 23-219) (ligand)
71%	human IL-12p35 double mutant hp35-N127,141Q (from UniProt P29459 23-219) (ligand)
90%	human IL-12p35 mutant hp35-N141Q (from UniProt P29459 23-219) (ligand)
100%	B1

Each molecule was assayed against B1 in the same assay as above.
Description: 1.5 μg/Ml of tunicamycin was added in some experiments. After incubation for another 24 hours, supernatants and cell pellets were harvested by centrifugation. Supernatants were used for the SEAP assay and cell pellets were resuspended in 200 μl of lysis solution (Promega). The levels of IL-12p70 and IL-12p40 in both supernatants and cell lysates were measured by ELISA (R&D system). For immunoblotting, 10% or 12% sodium dodecyl-sulfate-polyacrylamide electrophoresis (SDS-PAGE) was conducted with supernatants and cell lysates. The proteins separated from the above experiment was electrotransfered to nylon membrane (Amersham). The proteins absorbed to the membrane were obtained by using biotin-labeled human IL-12 antibody (Amersham), horseradish peroxidase (HRP)-labeled streptavidin (PharMingen) and ECL kit (Amersham). The levels of IL-12p70 or IL-12p40 expression were measured by ELISA and presented relatively to the level of wild type, which is arbitrarily set at 100%.
^aTotal 20 μg of each DNA contruct was used for transfection into COS-7 cells by electroporation. For simultaneous transfection of two DNA constructs, 10 μg of each DNA construct was used. ^bThe levels of human and mouse IL-12p70 or IL-12p40 expression were measured by ELISA and presented relative to the wild-type, which is arbitrarily set at 100%. ^cThe equal amount of p70 in each mutant supernatant was used in the IFN-γ induction assay. The levels of induced IFN-γ were measured by ELISA and presented relative to the level of wild type, which is arbitrarily set at 100%. ^dIL-12p40 indicates the monomeric and homodimeric p40 form of IL-12p40, but not the p40 part of IL-12p70. ^eIL-12p70 indicates the heterodimer which consists of IL-12p35 and IL-12p40. ^fThe plasmid backbone used for independent expression of hIL-12p40, hIL-12p35, and their derivatives is pCIN-neo and is descibed as mock. ^g<1 indicates values below the detectable range of ELISA assay. ^hWhen the equal amount of p70 in each indicated mutant (hp40-N135Q) and wild-type supernatant is used in IFN-γ induction assay, the insufficient hp40 in each mutant supernatant compared to wild-type supernatantwas reconstituted with hp40 supernatant obtained after tranfection with hp40 only ⁱNumbers in ( ) mean each amount (μg) of cotransfected plasmid, pCIN-hp40-N222Q and pCIN-hp35.

IL-12p70 heterodimer in cell lysates (% of wild type)	Molecule
97%	human IL-12p40 mutant hp40-N125Q (from UniProt P29460 23-328) (ligand)
99%	human IL-12p40 mutant hp40-N135Q (from UniProt P29460 23-328) (ligand)
89%	human IL-12p40 mutant hp40-N222L (ligand, NO; 3 already carries N222L; also called Leu-222) IWELKKDVYVVELDWYPDAPGEMVVLTCDTPEEDGITWTLDQSSEVLGSGKTLTIQVKEFGDAGQYTCHKGGEVLSHSLLLLHKKEDGIWSTDILKDQKEPKNKTFLRCEAKNYSGRFTCWWLTTISTDLTFSVKSSRGSSDPQGVTCGAATLSAERVRGDNKEYEYSVECQEDSACPAAEESLPIEVMVDAVHKLKYELYTSSFFIRDIIKPDPPKNLQLKPLKNSRQVEVSWEYPDTWSTPHSYFSLTFCVQVQGKSKREKKDRVFTDKTSATVICRKNASISVRAQDRYYSSSWSEWASVPCS
90%	B2

Source: patent US20040023332A1 (GENEXINE, published 2004)
